How the values were obtained:
[1] = molecular target: mouse PD-L1 in wild-type parental MC38 cells (mouse (endogenous in MC38), UniProt Q9EP73 19-290); experiment: flow cytometry on cells
sPD-1 V1 Fc (human) = sPD-1 V1 Fc (human) (UniProt Q15116); experiment: SPR

Chain of mouse PD-L1 in wild-type parental MC38 cells (Q9EP73 19-290): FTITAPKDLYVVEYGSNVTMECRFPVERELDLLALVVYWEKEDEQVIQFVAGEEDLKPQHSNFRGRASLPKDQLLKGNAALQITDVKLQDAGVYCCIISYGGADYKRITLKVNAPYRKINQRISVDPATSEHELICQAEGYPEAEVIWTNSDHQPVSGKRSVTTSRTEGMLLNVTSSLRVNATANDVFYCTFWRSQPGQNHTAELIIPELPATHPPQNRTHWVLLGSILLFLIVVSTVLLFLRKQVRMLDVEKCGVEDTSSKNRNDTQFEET

fold increase in binding signal over wild-type sPD-1 [1] [fold] | fold improvement in binding affinity over wild type sPD-1 (sPD-1 V1 Fc (human)) [fold] | Binder
~4 | – | sPD-1 V2 Fc (Fc fusion) LDSPDRPWNPPTFSPALLVVTEGDNATFTCSFSNTSEGFVLNWYRMSPSNQTDKLAAFPEDRGQLGQDCRFRVTQLPNGRDFHMSVVRARRNDSGTYLCSAIVLAPKIQIKESLRVELRVTERRAEVPTAHPSPSPRPAGQFQTLV
– | 200 | human PD-L2 (#10292-H08H, SinoBiological) (ligand) LFTVTVPKELYIIEHGSNVTLECNFDTGSHVNLGAITASLQKVENDTSPHRERATLLEEQLPLGKASFHIPQVQVRDEGQYQCIIIYGVAWDYKYLTLKVKASYRKINTHILKVPETDEVELTCQATGYPLAEVSWPNVSVPANTSHSRTPEGLYQVTSVLRLKPPPGRNFSCVFWNTHVRELTLASIDLQSQMEPRTHPT

Source: article doi:10.1101/2020.01.19.911941 (bioRxiv, 2020)
